# Laboratory results reported in publication PMC8245648, “The R2R3-type MYB transcription factor MdMYB90-like is responsible for the enhanced skin color of an apple bud sport mutant”.
# T1: MdMYB90-like (Malus domestica (Fuji apple / M_Fuji …, UniProt A0A498J9W0 1-206))
# T1 sequence: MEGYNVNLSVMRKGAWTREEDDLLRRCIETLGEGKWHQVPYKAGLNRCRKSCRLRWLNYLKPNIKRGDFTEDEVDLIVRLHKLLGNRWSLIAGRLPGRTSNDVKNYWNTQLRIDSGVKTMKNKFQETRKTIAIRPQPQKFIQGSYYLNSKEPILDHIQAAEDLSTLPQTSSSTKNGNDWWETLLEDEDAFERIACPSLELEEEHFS
# Tests used:
# MdMYB90-like [1] = target: T1, MdMYB90-like; test: EMSA; EMSA, Beyotime Chemiluminescent EMSA Kit, 1x kit binding buffer, 10 uL total; salt, pH and temperature not stated; conditions: protein: recombinant; tags: MBP (pMAL-c5X fusion); label: biotin; blunt
# MdMYB90-like [2] = target: T1, MdMYB90-like; test: competition; unlabeled mutant did not reduce binding to N1; EMSA, Beyotime Chemiluminescent EMSA Kit, 1x kit binding buffer, 10 uL total; salt, pH and temperature not stated; conditions: protein: recombinant; tags: MBP (pMAL-c5X fusion); blunt
# MdMYB90-like [3] = target: T1, MdMYB90-like; test: competition; unlabeled mutant did not reduce binding to N7; EMSA, Beyotime Chemiluminescent EMSA Kit, 1x kit binding buffer, 10 uL total; salt, pH and temperature not stated; conditions: protein: recombinant; tags: MBP (pMAL-c5X fusion); blunt
# MdMYB90-like [4] = target: T1, MdMYB90-like; test: competition; unlabeled mutant did not reduce binding to N3; EMSA, Beyotime Chemiluminescent EMSA Kit, 1x kit binding buffer, 10 uL total; salt, pH and temperature not stated; conditions: protein: recombinant; tags: MBP (pMAL-c5X fusion); blunt
# MdMYB90-like [5] = target: T1, MdMYB90-like; test: competition; unlabeled mutant did not reduce binding to N5; EMSA, Beyotime Chemiluminescent EMSA Kit, 1x kit binding buffer, 10 uL total; salt, pH and temperature not stated; conditions: protein: recombinant; tags: MBP (pMAL-c5X fusion); blunt
Binder,binding result (MdMYB90-like [1]),also measured
MYB1 probe (dsDNA) DNA 1: CGGACCACTCAACGGAACAAATAAG DNA 2: CTTATTTGTTCCGTTGAGTGGTCCG,binds,
CHSm probe (dsDNA) DNA 1: GACTAATTTTGGTAACTCCCAAAGT DNA 2: ACTTTGGGAGTTACCAAAATTAGTC,,binding result (MdMYB90-like [2]): no binding
MYB1m probe (dsDNA) DNA 1: CGGACCACTTGGTAAAACAAATAAG DNA 2: CTTATTTGTTTTACCAAGTGGTCCG,,binding result (MdMYB90-like [3]): no binding
BHLH3 probe (dsDNA) DNA 1: CCTGCTCACTAACCAATCAAACCCA DNA 2: TGGGTTTGATTGGTTAGTGAGCAGG,binds,
UFGTm probe (dsDNA) DNA 1: TGGTACAAATGGTAACAATAAAATA DNA 2: TATTTTATTGTTACCATTTGTACCA,,binding result (MdMYB90-like [4]): no binding
BHLH3m probe (dsDNA) DNA 1: CCTGCTCACTGGTAAATCAAACCCA DNA 2: TGGGTTTGATTTACCAGTGAGCAGG,,binding result (MdMYB90-like [5]): no binding
CHS probe (dsDNA) DNA 1: GACTAATTTCAACTGCTCCCAAAGT DNA 2: ACTTTGGGAGCAGTTGAAATTAGTC,binds,
UFGT probe (dsDNA) DNA 1: TGGTACAAACAACTGCAATAAAATA DNA 2: TATTTTATTGCAGTTGTTTGTACCA,binds,
